This is an account of results in publication doi:10.1101/2023.11.28.568993 (bioRxiv, 2023).

This data set concerns the molecule itself. As to the kind of experiment: SEC.

B1: DNAJA2 (wild-type, class A J-domain protein) (natural protein)
chain: not shown
modifications: Alexa Fluor-488 label in the fluorescence anisotropy assays (site not stated)
Consider B1, for which the “stoichiometry N” value is 2.

A word on the stoichiometry N: it is the number of molecules, sites or subunits per partner or assembly.
